Test results as given in US20200207868A1.

Biological target: full-length extracellular region of human FGFR1 (human) (UniProt P11362)
Test: BLI, target binding to sensor-immobilized Fab

B1: Library-S Fab against FGFR1 (Fab, V domains shown)
VH: EVQLVESGGGLVQPGGSLRLSCAASGFTFSSYGMHWVRQAPGKGLEWVAVISYDGSNKYYADSVKGRFTISRDNSKNTLYLQMNSLRAEDTAVYYCARSGRYGTYKGDFDYWGQGTLVTVSS
VL: DIQMTQSPSSLSASVGDRVTITCRASQGISNYLAWYQQKPGKAPKLLIYAASSLQSGVPSRFSGSRSGTDFTLTISSLQPEDFATYYCQQSYRSPLTFGQGTKVEIK
Kd: 22.4 nM
